According to patent US20260232827A1 (Zymeworks, published 2026):
Substitutions are numbered along the chain they refer to.

T1: human sodium-dependent phosphate transporter 2B (NaPi2b) (human, UniProt O95436 1-690)
T1 construct: UniProt ID is given as 095436 [sic]; also called hNaPi2b; Hu NaPi2b
T1 sequence: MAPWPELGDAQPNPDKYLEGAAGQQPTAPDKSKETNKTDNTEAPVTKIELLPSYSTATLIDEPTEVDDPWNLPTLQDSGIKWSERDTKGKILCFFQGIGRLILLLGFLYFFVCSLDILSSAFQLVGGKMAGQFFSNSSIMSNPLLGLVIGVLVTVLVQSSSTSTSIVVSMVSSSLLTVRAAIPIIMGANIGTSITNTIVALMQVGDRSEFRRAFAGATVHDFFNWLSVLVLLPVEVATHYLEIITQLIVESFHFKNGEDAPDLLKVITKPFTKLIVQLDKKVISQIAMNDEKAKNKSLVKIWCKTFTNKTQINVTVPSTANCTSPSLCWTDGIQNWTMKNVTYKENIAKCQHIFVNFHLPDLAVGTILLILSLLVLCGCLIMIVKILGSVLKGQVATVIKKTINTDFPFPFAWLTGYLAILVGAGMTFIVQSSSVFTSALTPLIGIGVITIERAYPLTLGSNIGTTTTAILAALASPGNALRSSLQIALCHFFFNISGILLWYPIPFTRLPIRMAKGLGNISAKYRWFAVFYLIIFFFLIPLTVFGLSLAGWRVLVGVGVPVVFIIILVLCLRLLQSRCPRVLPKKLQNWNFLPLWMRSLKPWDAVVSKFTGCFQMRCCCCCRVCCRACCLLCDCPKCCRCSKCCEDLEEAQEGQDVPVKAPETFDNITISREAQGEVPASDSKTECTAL

T2: mouse NaPi2b (mouse, UniProt Q9DBP0 1-697)
T2 construct: also called Ms NaPi2b; CL #13476
T2 sequence: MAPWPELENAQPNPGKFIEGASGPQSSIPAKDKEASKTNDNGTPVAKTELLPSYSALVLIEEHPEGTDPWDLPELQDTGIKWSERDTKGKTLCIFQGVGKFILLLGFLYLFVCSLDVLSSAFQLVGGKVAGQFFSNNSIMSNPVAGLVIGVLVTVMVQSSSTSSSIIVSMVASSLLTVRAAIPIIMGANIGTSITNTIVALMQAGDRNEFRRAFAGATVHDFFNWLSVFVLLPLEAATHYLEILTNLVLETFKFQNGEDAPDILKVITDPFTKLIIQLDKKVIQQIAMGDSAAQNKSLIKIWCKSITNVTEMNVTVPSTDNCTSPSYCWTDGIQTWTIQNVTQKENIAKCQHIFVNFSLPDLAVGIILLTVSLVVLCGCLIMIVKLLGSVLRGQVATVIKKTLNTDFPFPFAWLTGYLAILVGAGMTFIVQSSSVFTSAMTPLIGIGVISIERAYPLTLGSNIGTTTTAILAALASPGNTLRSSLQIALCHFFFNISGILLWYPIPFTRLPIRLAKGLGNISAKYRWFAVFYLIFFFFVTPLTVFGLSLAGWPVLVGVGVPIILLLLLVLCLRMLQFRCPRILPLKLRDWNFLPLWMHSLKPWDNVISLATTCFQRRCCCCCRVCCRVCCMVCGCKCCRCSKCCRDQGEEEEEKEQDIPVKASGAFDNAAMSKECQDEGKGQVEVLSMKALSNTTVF

T3: cynomolgus monkey NaPi2b (cynomolgus monkey, UniProt O95436 1-690 (human entry))
T3 construct: also called Cyno NaPi2b; Cy NaPi2b
T3 chain: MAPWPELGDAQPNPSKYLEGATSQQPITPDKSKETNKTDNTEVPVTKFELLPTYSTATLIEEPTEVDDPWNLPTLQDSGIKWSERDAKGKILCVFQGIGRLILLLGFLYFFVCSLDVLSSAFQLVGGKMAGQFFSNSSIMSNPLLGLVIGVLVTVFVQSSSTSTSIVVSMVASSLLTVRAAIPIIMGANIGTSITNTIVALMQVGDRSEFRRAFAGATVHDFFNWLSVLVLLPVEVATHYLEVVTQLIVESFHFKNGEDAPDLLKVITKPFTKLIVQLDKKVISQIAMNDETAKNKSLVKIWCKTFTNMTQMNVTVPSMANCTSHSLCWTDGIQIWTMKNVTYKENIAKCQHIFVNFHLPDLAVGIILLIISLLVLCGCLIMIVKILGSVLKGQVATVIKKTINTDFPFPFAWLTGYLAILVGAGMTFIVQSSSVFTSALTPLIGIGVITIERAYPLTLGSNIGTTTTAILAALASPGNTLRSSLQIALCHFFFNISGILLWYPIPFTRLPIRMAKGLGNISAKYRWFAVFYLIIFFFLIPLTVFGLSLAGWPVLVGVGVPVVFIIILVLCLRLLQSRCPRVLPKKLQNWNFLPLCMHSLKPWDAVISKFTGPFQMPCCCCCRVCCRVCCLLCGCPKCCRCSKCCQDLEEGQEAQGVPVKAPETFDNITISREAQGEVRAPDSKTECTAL

T4: human FcγR IIA H131 CD32aH (v5774) (human, UniProt P12318 34-217, limits assumed)
T4 construct: In-house reagent
T4 sequence (looked up): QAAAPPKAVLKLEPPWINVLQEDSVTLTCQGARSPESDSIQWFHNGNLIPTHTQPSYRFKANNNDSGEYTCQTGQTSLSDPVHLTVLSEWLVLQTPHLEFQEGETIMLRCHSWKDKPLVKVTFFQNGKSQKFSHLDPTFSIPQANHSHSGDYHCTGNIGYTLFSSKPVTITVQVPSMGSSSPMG

T5: human FcγR IIA R131 CD32aR (v5775) (human, UniProt P12318 34-217, limits assumed)
T5 construct: In-house reagent
T5 sequence (looked up): T4 sequence (looked up) with H134R

T6: human FcγR IIB Y160 CD32bY (v5777) (human, UniProt P31994 43-217, limits assumed)
T6 construct: In-house reagent
T6 sequence (looked up): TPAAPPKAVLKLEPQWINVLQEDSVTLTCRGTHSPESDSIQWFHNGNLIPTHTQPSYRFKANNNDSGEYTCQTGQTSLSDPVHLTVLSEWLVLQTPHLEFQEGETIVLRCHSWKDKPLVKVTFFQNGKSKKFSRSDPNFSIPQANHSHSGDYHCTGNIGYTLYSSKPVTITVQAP

B1: v38591-MC-GGFG-AM-Compound 139 DAR 8 (antibody, human IgG1, kappa)
heavy: not shown
light: DVQMTQSPSSLSASVGDRVTITCRASQDVYSYLNWYQQKPGKAVKLLIYYTSRLQSGVPSRFSGSGSGTDYTLTISSLQPEDFATYYCQQYNIFPWTFGQGTKLEIKRTVAAPSVFIFPPSDEQLKSGTASVVCLLNNFYPREAKVQWKVDNALQSGNSQESVTEQDSKDSTYSLSSTLTLSKADYEKHKVYACEVTHQGLSSPVTKSFNRGEC
modifications: as above; MC-GGFG-AM-Compound 139 drug-linker on cysteines freed by TCEP reduction; sites not stated; DAR 8
notes: Antibody-drug conjugate of v38591; also called v38593
B2: v38591-MC-GGFG-AM-Compound 139 DAR 4 (antibody, human IgG1, kappa)
heavy: not shown
light: B1 light
modifications: as above; MC-GGFG-AM-Compound 139 drug-linker on cysteines freed by TCEP reduction; sites not stated; DAR 4
notes: Antibody-drug conjugate of v38591
B3: v40554 (LALA) anti-NaPi2b antibody (antibody)
chain 1: not shown
chain 2: B1 light

Tests used:
[1] = target: T1, human sodium-dependent phosphate …; assay: flow cytometry on IGROV-1 cells (endogenous NaPi2b), 24 h at 4 C, anti-human IgG Fc AF647
Procedure: (§1) Following incubation and washing, fluorescence was detected by flow cytometry on a BD LSRFortessa™ Cell Analyzer (BD Biosciences, Franklin Lake, NJ) with 1,000 minimum events collected per well.

[2] = target: T1, human sodium-dependent phosphate …; assay: flow cytometry on OVCAR-3 cells (endogenous NaPi2b), 24 h at 4 C, anti-human IgG Fc AF647
Procedure: as §1

mouse NaPi2b = target: T2, mouse NaPi2b; assay: flow cytometry on HEK293-6e cells transfected with mouse NaPi2b, 24 h at 4 C, anti-human IgG Fc AF647
Procedure: (§2) Following transfection, cells were seeded at 50,000 cells/well in conical-bottom 96-well plates and treated with test antibody or antibody-drug conjugate for 24 hours at 4° C. to prevent internalization. […] Following incubation and washing, fluorescence was detected by flow cytometry on a BD LSRFortessa™ Cell Analyzer (BD Biosciences, Franklin Lake, NJ) with 1,000 minimum events collected per well.

cynomolgus monkey NaPi2b = target: T3, cynomolgus monkey NaPi2b; assay: flow cytometry on HEK293-6e cells transfected with cynomolgus monkey NaPi2b, 24 h at 4 C, anti-human IgG Fc AF647
Procedure: as §2

[3] = target: T1, human sodium-dependent phosphate …; assay: flow cytometry on H441 cells (endogenous NaPi2b), 24 h at 4 C, anti-human IgG Fc AF647, APC-A GeoMean
Procedure: (§3) Cells were maintained under standard culture conditions (37° C./5% CO₂) until assay set-up. […] Cells were removed from culture vessels using Cell Dissociation Buffer (Invitrogen, Waltham, MA), seeded at 50,000 cells/well in conical-bottom 96-well plates, and treated with test antibody or antibody-drug conjugate for 24 hours at 4° C. to prevent internalization. […] Following incubation and washing, fluorescence was detected by flow cytometry on a BD LSRFortessa™ Cell Analyzer (BD Biosciences, Franklin Lake, NJ) with 1,000 minimum events collected per well.

[4] = target: T1, human sodium-dependent phosphate …; assay: flow cytometry on HCC-78 cells (endogenous NaPi2b), 24 h at 4 C, anti-human IgG Fc AF647, APC-A GeoMean
Procedure: as §3

[5] = target: T1, human sodium-dependent phosphate …; assay: flow cytometry on IGROV-1 cells (endogenous NaPi2b), 24 h at 4 C, anti-human IgG Fc AF647, APC-A GeoMean
Procedure: as §3

[6] = target: T7, human FcγR I CD64 (Sino Biological Inc. 10256-H08H) (human, UniProt P12314 16-288); assay: SPR (Biacore T200), antibody captured on protein A, FcγR as analyte, multicycle, 1:1 fit
T7 construct: Bought reagent
T7 sequence (P12314 16-288 limits assumed): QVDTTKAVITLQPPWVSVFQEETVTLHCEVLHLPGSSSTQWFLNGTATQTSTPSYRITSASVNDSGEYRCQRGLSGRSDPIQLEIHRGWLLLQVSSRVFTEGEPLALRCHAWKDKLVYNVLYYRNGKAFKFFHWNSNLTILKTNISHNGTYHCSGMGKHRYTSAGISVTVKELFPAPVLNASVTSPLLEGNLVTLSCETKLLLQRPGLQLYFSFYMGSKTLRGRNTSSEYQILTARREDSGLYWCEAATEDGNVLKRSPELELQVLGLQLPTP
Procedure: (§4) Approximately 400-600 RUs of each antibody (2 μg/mL) were captured on the protein A surface on flow cell 2, 3 and 4 by injecting at 10 μL/min for 60 s. Flow cell 1 was used as a reference surface. […] Each in-house FcγR with five concentrations were flowed as analyte using single-cycle kinetics strategy. The flow rate of FcγRs was 50 L/min with contact time of 40 sec and dissociation time of 120 sec. For the high affinity FcγRI CD64, multicycle kinetics were applied. The flow rate of the analyte was 100 L/min with contact time of 100 sec and dissociation time of 650 sec. Blank buffer control was injected using the same flow rate and contact time for each cycle. Surface regeneration was accomplished using 10 mM glycine-HCl, pH 1.5 (Cytiva©, BR100354) for 30 sec with a flow rate of 50 μL/min after each cycle. Binding constants and the maximum observed binding signal (Rmax) were determined using the Biacore™ T200 Evaluation software (version 3.0; GE Healthcare). For single-cycle kinetics, blank-subtracted sensorgrams were analyzed using steady state affinity fitting model. For multicycle kinetics, results were fit to the 1:1 Langmuir binding model.

[7] = target: T4, human FcγR IIA H131 CD32aH (v5774); assay: SPR (Biacore T200), antibody captured on protein A, FcγR as analyte, single-cycle, steady-state fit;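 note: five FcγR concentrations per single cycle, 40 s association then 120 s dissociation, responses corrected against a reference flow cell and blank buffer injections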
Procedure: as §4

[8] = target: T5, human FcγR IIA R131 CD32aR (v5775); assay: as above
Procedure: as §4

[9] = target: T6, human FcγR IIB Y160 CD32bY (v5777); assay: as above
Procedure: as §4

[10] = target: T8, human FcγR IIIA V159 CD16aV (v5773) (human, UniProt P08637 17-208, limits assumed); assay: as above
T8 construct: In-house reagent
T8 sequence (P08637 17-208 F176V limits assumed): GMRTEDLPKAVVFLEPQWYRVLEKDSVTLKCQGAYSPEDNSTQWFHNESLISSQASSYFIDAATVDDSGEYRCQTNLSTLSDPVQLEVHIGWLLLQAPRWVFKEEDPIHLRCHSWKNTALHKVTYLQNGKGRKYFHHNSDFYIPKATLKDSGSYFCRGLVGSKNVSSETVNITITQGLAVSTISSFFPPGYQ
Procedure: as §4

Biotinylated human FcRn = target: T9, Biotinylated human FcRn (human, UniProt P55899 24-297; P61769 21-119, limits assumed, biotinylated (site not stated)); assay: SPR (Biacore T200), biotinylated FcRn on neutravidin, antibody as analyte, pH 5.9, steady-state fit
T9 construct: also called Biotinlated human FcRn; human neonatal fragment crystallizable receptor (FcRn)

| EC50 (read off the curve) [1] | EC50 (read off the curve) [2] | EC50 (read off the curve) (mouse NaPi2b) | EC50 (read off the curve) (cynomolgus monkey NaPi2b) | EC50 (read off the curve) [3] | EC50 (read off the curve) [4] | EC50 (read off the curve) [5] | Binding percentage [6] | Kd [6] | Binding percentage [7] | Kd [7] | Binding percentage [8] | Kd [8] | Binding percentage [9] | Kd [9] | Binding percentage [10] | Kd [10] | Binding percentage (Biotinylated human FcRn) | Kd (Biotinylated human FcRn) | Binder |
| --- | --- | --- | --- | --- | --- | --- | --- | --- | --- | --- | --- | --- | --- | --- | --- | --- | --- | --- | --- |
| ~2 nM | ~3 nM | ~0.6 nM | ~0.5 nM | – | – | – | – | – | – | – | – | – | – | – | – | – | – | – | B1 |
| ~2 nM | 2 to 3 nM | – | ~0.4 nM | ~0.6 nM | ~3 nM | ~2 nM | – | – | – | – | – | – | – | – | – | – | – | – | B2 |
| – | – | – | – | – | – | – | 6.4% | 3.79 nM | 63.8% | 29200 nM | 58% | 29300 nM | 53.2% | 48700 nM | 41.5% | 4020 nM | 27% | 132 nM | B3 |
